In the supplement of paper PMC10567573:

B1: KRT33B (parent)
chain: YQSYFKTIEELQQKILCSKSENAR

Variants of: B1
Assay: protein stability index of a GFP-peptide fusion (GPS, HEK-293T) (PSI 1-6); higher = more stable
Conditions: c terminus: a fixed tail appended
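Further: lentivirally expressed fusions sorted by FACS into six bins by GFP to DsRed ratio, PSI derived from sequencing read proportions per bin multiplied by bin number.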

Variant	protein stability index
K19P	2.14
K19D	1.72
K19H	1.76
K19M	1.69
K19G	2.08
K19V	1.7
K19E	2.56
K19L	1.54
K19R	2.06
K19F	1.7
K19A	1.72
K19W	1.57
K19C	1.84
K19T	2.3
K19S	1.78
K19I	1.71
K19Y	1.84
K19Q	2.08
K19N	1.86
C17R	2.14
C17Q	1.89
C17S	1.7
C17V	1.72
C17H	2.31

Variant	protein stability index
C17Y	1.61
C17W	1.53
C17P	1.77
C17N	1.95
C17M	2.54
C17I	2.07
C17K	2.19
C17F	1.39
C17L	2.87
C17D	1.65
C17A	2.16
C17G	1.87
C17T	2.19
C17E	2.49
E21M	2.13
E21N	1.79
E21V	1.65
E21K	1.79
E21D	1.77
E21Q	2.1
E21H	1.79
E21T	1.77
E21C	1.79
E21P	1.8

Variant	protein stability index
E21I	1.6
E21G	1.72
E21L	1.7
E21Y	1.75
E21W	1.28
E21S	1.54
E21A	1.86
E21R	1.77
E21F	2.06
K14P	1.45
K14Q	2.78
K14T	1.56
K14V	1.65
K14S	1.97
K14M	2.28
K14C	2.14
K14L	2.14
K14W	3.51
K14N	1.7
K14A	1.53
K14F	2.02
K14R	2.57
K14I	1.66
K14E	1.82

Variant	protein stability index
K14Y	1.61
K14H	2.28
K14G	1.25
K14D	1.68
S18M	2.18
S18N	1.92
S18T	2
S18R	2.18
S18P	1.79
S18G	2.21
S18L	1.79
S18H	1.84
S18Y	2.21
S18I	2.42
S18Q	2.26
S18V	1.73
S18W	1.97
S18D	1.9
S18C	2.65
S18E	2.12
S18F	1.68
S18K	1.86
S18A	2.21
L16S	2

Variant	protein stability index
L16C	2.52
L16V	2.89
L16H	1.96
L16D	1.87
L16M	1.85
L16I	2.14
L16F	1.93
L16Q	1.88
L16P	2.12
L16E	1.73
L16K	2.39
L16T	1.55
L16W	2.1
L16G	1.92
L16Y	1.41
L16N	1.84
L16R	2.49
L16A	2.13
I8S	1.51
I8G	1.78
I8A	2.44
I8M	1.79
I8P	2.78
I8T	1.63

Variant	protein stability index
I8D	2.07
I8R	1.9
I8V	2.19
I8E	3
I8Q	2.06
I8N	2.19
I8Y	1.93
I8L	2.41
I8F	2.01
I8W	1.94
I8K	2.42
I8C	1.84
I8H	2.42
S20N	2.13
S20W	1.56
S20V	2.04
S20L	1.73
S20Y	1.95
S20C	1.95
S20P	1.99
S20F	1.97
S20Q	1.81
S20I	1.92
S20A	2.02

Variant	protein stability index
S20D	2.32
S20R	1.89
S20M	1.63
S20E	1.65
S20H	1.82
S20G	1.38
S20K	2.05
S20T	1.87
E9F	1.53
E9V	1.98
E9H	2.25
E9S	2.99
E9C	1.79
E9K	2.9
E9Y	2.33
E9M	1.78
E9W	1.71
E9T	2.12
E9A	1.98
E9P	1.66
E9D	1.9
E9N	2.69
E9R	2.99
E9G	1.86

Variant	protein stability index
E9L	2.17
E9Q	1.98
E9I	1.9
N22K	1.8
N22H	2.18
N22C	2.3
N22M	1.93
N22R	1.49
N22Q	2.19
N22A	2.31
N22L	1.86
N22D	1.82
N22F	1.67
N22S	2.5
N22I	1.71
N22P	1.46
N22E	1.89
N22G	1.99
Q12G	1.73
Q12F	2.98
Q12M	1.53
Q12E	2.6
Q12K	2.06
Q12S	1.96

Variant	protein stability index
Q12Y	1.97
Q12N	1.89
Q12A	2.78
Q12R	2.11
Q12V	1.98
Q12C	1.58
Q12T	1.96
Q12P	1.8
Q12H	1.78
Q12L	1.79
Q12D	2.07
Q12I	1.94
Q12W	1.91
E10Y	2.52
E10C	1.72
E10V	2.28
E10R	1.89
E10H	1.65
E10F	2.13
E10T	1.87
E10M	1.67
E10W	1.71
E10D	2.36
E10L	1.63

Variant	protein stability index
E10I	1.66
E10N	2.1
E10K	2.44
E10A	2.02
E10P	2.39
E10S	1.65
E10Q	2.69
E10G	2.6
T7I	1.97
T7R	1.88
T7K	1.88
T7L	2
T7D	2.42
T7F	2.11
T7C	2.1
T7V	2.25
T7S	1.73
T7N	2.23
T7E	2.31
T7W	1.8
T7M	2.12
T7A	2.21
T7H	2.31
T7G	1.8

Variant	protein stability index
T7Y	2.08
T7Q	1.84
T7P	1.85
I15V	1.7
I15G	2.25
I15F	2
I15E	1.81
I15W	1.71
I15L	1.67
I15S	1.93
I15Q	2.09
I15P	2.3
I15M	2.07
I15N	1.85
I15C	3.74
I15A	2.14
I15T	1.81
I15D	2.05
I15H	2.52
I15K	1.64
I15R	1.93
I15Y	1.73
L11W	2.2
L11I	1.81

Variant	protein stability index
L11Q	1.71
L11F	1.75
L11H	2.1
L11K	1.42
L11E	2.01
L11V	2.01
L11D	1.79
L11T	1.85
L11N	2.09
L11Y	1.8
L11G	2.02
L11C	1.53
L11M	1.6
L11P	2.06
L11A	2.41
L11S	1.84
L11R	1.62
Q13Y	1.65
Q13P	1.83
Q13H	2.09
Q13S	1.86
Q13N	2.19
Q13L	2.2
Q13D	1.55

Variant	protein stability index
Q13V	1.78
Q13I	1.35
Q13C	1.3
Q13A	1.79
Q13F	2.04
Q13M	1.4
Q13R	1.68
Q13K	1.85
Q13W	2.6
Q13E	1.81
Q13G	2.09
Q13T	2.23
K6G	1.5
K6F	2.25
K6C	3.34
K6A	1.43
K6V	2.41
K6E	1.93
K6N	1.88
K6T	1.79
K6Q	1.64
K6L	1.77
K6H	1.62
K6M	1.8

Variant	protein stability index
K6W	2.07
K6I	2.52
K6D	2.08
K6P	2.74
K6Y	2.55
K6R	1.11
K6S	2.59
F5L	2.07
F5S	2.81
F5M	3.48
F5Q	2.78
F5P	2.17
F5I	2.12
F5K	2.38
F5T	2.59
F5G	2.92
F5W	2.44
F5Y	2.32
F5N	2.91
F5R	2.53
F5V	2.26
F5H	1.84
